Laboratory results from PMC3722453, “N-truncated amyloid β (Aβ) 4-42 forms stable aggregates and induces acute and long-lasting behavioral deficits” (Acta Neuropathologica, 2013).

Assays:
primary cortical neurons = assay: Calcein-AM cell viability assay; assay type: cell-based, Wistar rat; conditions: for effect on cell viability: 24 h incubation with freshly prepared peptide at different concentrations, calcein-AM fluorescence; for toxicity profile compared to vehicle control: ANOVA with Bonferroni multiple comparisons
Description: Cortical neurons from embryonic day 16–17 Wistar rat fetuses were prepared as previously described. In brief, dissociated cortical cells were plated at 50,000 cells/well in 48-well plates precoated with 1.5 mg/mL polyornithine (Sigma). Cells were cultured in a chemically defined Dulbecco’s Modified Eagle’s/F12 medium free of serum (Gibco) and supplemented with hormones, proteins and salts. […] At 6 DIV, the medium was removed and cortical neurons were incubated for 24 h with vehicle (cell culture medium) or Aβ peptides (dissolved in cell culture medium) at the indicated concentrations.
Following a 24-h incubation of primary cortical neurons with Aβ peptides, cell viability was determined using a calcein-AM assay (Invitrogen, Molecular Probes). Briefly, cells were washed twice with PBS and incubated to protect from light for 30 min at room temperature in the presence of 2 μM calcein-AM solution prepared in PBS. Cells were then washed twice with PBS and incubated for 15 min at room temperature in PBS containing 1 % Triton X-100 (v/v). The level of calcein fluorescence was monitored by fluorescence emission at 530 nm after exciting at 485 nm, using a Fluostar microplate reader (BMG-Labtechnologies, France).

[1] = SDS-PAGE Western blot of Aβ peptides (stable aggregates); assay type: physicochemical; conditions: 1 μg peptide, reducing conditions, antiserum 24311; for higher molecular weight oligomers on SDS-PAGE after aging: after 1 and 3 days of aging
Description: Lyophilized Aβ peptides were dissolved in 10-mM NaOH at a concentration of 1 mg/mL, aliquoted in 50 μL volumes, flash-frozen in liquid nitrogen and stored at −80 °C until use. For Western blot analysis under reducing conditions, 1 μg peptides were loaded on 4–12 % VarioGels (Anamed), transferred to 0.45 μm nitrocellulose membranes and detected using the primary antiserum 24311 (pan-Aβ, 1:500) or monoclonal antibody 4G8 (Aβ17-24, Signet; 1:500). For Western blotting of mouse brain, whole brain SDS lysates were used. Running and transfer buffers were applied according to the manufacturer. The blots were developed using enhanced chemiluminescence according to the manufacturer (Roth). Horse radish conjugated swine anti-rabbit antibody was used as a secondary antibody (1:3,000, Dianova).

[2] = Transmission electron microscopy (TEM) of aggregates; assay type: physicochemical; conditions: 0.1 mg/mL, HEPES 25 mM pH 7.4, 50 mM NaCl, 3 days at 37 °C with gentle stirring
Description: Peptide samples of 0.1 mg/mL concentration in HEPES buffer (25 mM, pH 7.4, 50 mM NaCl) were incubated at 37 °C with gentle stirring. After 3 days of incubation, samples were diluted, deposited onto carbon-coated copper mesh grids and negatively stained with 2 % (w/v) uranyl acetate. The excess stain was washed away, and the sample grids were allowed to air-dry. The samples were then viewed with a 120-kV transmission electron microscope.

C57BL/6 J wildtype mice = assay: Y-maze working memory after intracerebroventricular injection of soluble Aβ; assay type: in vivo, mouse; conditions: 50 pmol in 1 μL icv, male C57BL/6 J mice 12-week old, n = 6 per group, Y-maze on day 4, 5-min session
Description: Male C57BL/6 J mice (12-week old, Janvier, Le Genest-St-Isle, France; n = 6 per treatment group) were housed five to six per cage with free access to food and water, and were kept in a constant environment (22 ± 2 °C, 50 ± 5 % humidity, 12-h light cycle). Under anesthetization, freshly prepared Aβ peptides (50 pmol in 1 μL; 0.1 M phosphate-buffered saline (pH 7.4)) or vehicle (0.1 M phosphate-buffered saline) were injected into the right ventricle, with stereotaxic coordinates from the bregma (AP −0.22, L −1.0 and D 2.5 in mm). Intracerebroventricular (icv) injections were made using a 10-μl Hamilton microsyringe fitted with a 26-gauge needle. Four days following icv infusion of Aβ peptides, working memory was assessed using the Y-maze test.
Immediate spatial working memory performance in male C57BL/6 J wildtype mice (12-week old, Janvier, Le Genest-St-Isle, France; n = 6 per treatment group) was assessed by recording spontaneous alternation behavior in a Y-maze as described previously. The Y-maze task was carried out on day 4 after soluble Aβ application. The maze was made of opaque plexiglas and each arm was 40-cm long, 16-cm high, 9-cm wide and positioned at equal angles. Mice were placed at the end of one arm and allowed to move freely through the maze during a 5-min session. The series of arm entries were recorded visually and arm entry was considered to be completed when the hind paws of the mouse were completely placed in the arm. Alternation was defined as successive entries into the three arms on overlapping triplet sets. The percentage alternation was calculated as the ratio of actual (total alternations) to possible alternations (defined as the number of arm entries minus two), multiplied by 100.

[3] = Far-UV circular dichroism (CD) spectroscopy; assay type: physicochemical; conditions: 0.2 mg/mL, phosphate buffer 20 mM pH 7.2, 20 °C, monomeric state
Description: Samples of 0.2 mg/mL peptide concentration in phosphate buffer (20 mM, pH 7.2) were prepared. The far-UV CD measurements were conducted on a Chirascan CD spectrometer, with a 1-mm path length quartz cell, 1-nm bandwidth and 8-s collection time for each point at 0.5 nm steps between 190 and 260 nm. The buffer spectrum was also measured and subtracted from the spectra of Aβ peptides. The temperature-dependence of secondary structure was studied through far-UV measurements at three different temperatures, 20, 30 and 40 °C. The reversibility of temperature-induced changes was checked with an additional CD spectrum measured after cooling down from 40 to 20 °C. The CD spectrum of the cooled sample was taken after 5 min of equilibration at 20 °C. The 0.2 mg/mL Aβ samples in phosphate buffer (20 mM, pH 7.2) containing 25 mM NaCl were incubated at 37 °C for 3 days with gentle stirring.

[4] = 1D 1H NMR monomer consumption assay; assay type: physicochemical; conditions: 40 μM peptide, phosphate buffer 20 mM pH 7.2, 25 mM NaCl; after 14 h of incubation at 37 °C; methyl and aromatic 1H signals normalised to DSS
Description: 1D ^1H NMR spectra of the five different Aβ peptides were measured at 5 °C at 400 MHz ^1H Larmor frequency. The samples contained 40-μM peptide in phosphate buffer (20 mM, pH 7.2) with 25-mM NaCl. The aggregation propensity of the Aβ variants were then studied through real-time 1D ^1H NMR experiments at 37 °C continued for 14 h at 1-h intervals. The integrated intensity of ^1H peaks at two regions (0.50–1.05 ppm, 6.50–8.00 ppm), after chemical shift using DSS ([…]) as a reference standard, was then calculated. After normalization by the integrated intensity of the DSS peak at 0 ppm, the relative intensity of the peptide ^1H peaks was used to probe peptide monomer consumption during the early phases of peptide aggregation.

[5] = Dynamic light scattering (DLS) of peptide supernatants; assay type: physicochemical; conditions: DLS at 20 °C, 0.2 mg/mL, phosphate buffer 20 mM pH 7.4, 25 mM NaCl; after 24 h at 37 °C without agitation; supernatant after 16,000g 15 min

In the case of “Aβ4-40: amyloid β (Aβ) variant, N-truncated, purchased from PSL”, the “effect on cell viability” value (primary cortical neurons) is reported as “dose-dependent reduction in cell viability”, the “higher molecular weight oligomers on SDS-PAGE after aging” value (“higher molecular weight oligomers” below) [1] is reported as “not” and the “species on SDS-PAGE, freshly dissolved peptides” value (“species on SDS-PAGE” for short) [1] is reported as “monomers, dimers but no other oligomers”. For the same substance, the “aggregate morphology by TEM” value [2] was “clumps of fibrillar aggregates”, the “working memory (Y-maze alternation rate)” value (C57BL/6 J wildtype mice) was “significantly reduced” and the “secondary structure by far-UV CD spectrum” value (“secondary structure” below) [3] was “unstructured in the monomeric state”. The “loss of initial 1H NMR signal intensity (monomer consumption)” value (shortened to “loss of initial 1H NMR signal intensity”) [4] was “around 5%”.
With “Aβ1-42: full-length amyloid β 1-42, purchased from PSL [reference compound]” the “effect on cell viability” value (primary cortical neurons) was “dose-dependent reduction in cell viability”, the “toxicity compared with Aβ4-40 at 5 μM” value (primary cortical neurons; 24 h incubation, 5 μM, calcein-AM) was “more potent than Aβ4-40” and the “toxicity profile compared to vehicle control” value (primary cortical neurons; 24 h incubation, calcein-AM) was “strongest toxic effect”. For the same substance, the “hydrodynamic radius of small (main) aggregates” value [5] was 5–10 nm, the “higher molecular weight oligomers” value [1] was “higher molecular weight oligomers in addition” and the “species on SDS-PAGE” value [1] was “monomers and aggregates most likely representing trimer/tetramers”. The “working memory (Y-maze alternation rate)” value (C57BL/6 J wildtype mice) was “performed at chance level and showed a significant and robust deficit in working memory”, the “secondary structure” value [3] was “unstructured in the monomeric state” and the “loss of initial 1H NMR signal intensity” value [4] was “around 5%”.
In the case of “Aβ4-38: amyloid β (Aβ) variant, N-truncated, purchased from PSL”, the “effect on cell viability” value (primary cortical neurons) is reported as “dose-dependent reduction in cell viability”, the “toxicity profile compared to vehicle control” value (primary cortical neurons; 24 h incubation, calcein-AM) is reported as “only toxic at 10 μM” and the “higher molecular weight oligomers” value [1] is reported as “not”. The “species on SDS-PAGE” value [1] was “monomers, dimers but no other oligomers”, the “aggregate morphology by TEM” value [2] was “clumps of fibrillar aggregates” and the “working memory (Y-maze alternation rate)” value (C57BL/6 J wildtype mice) was “behaved like vehicle controls and learned well”. For the same substance, the “secondary structure” value [3] was “unstructured in the monomeric state” and the “loss of initial 1H NMR signal intensity” value [4] was “rose slightly in intensity”.
